According to publication PMC6107761:

Experiments:
Settings in all cases: remark: other sources report otherwise
[1] = target: T1, human wild type calcium and integrin binding protein 2 (CIB2) (human), O75838; test: native gel or EMSA; Ferguson plot: non-denaturing continuous gels at 10, 12, 15% acrylamide, BSA as standard; 20 μM CIB2 with EGTA, Mg2+ or Ca2+ + Mg2+, 1 mM DTT, room temperature
T1 chain: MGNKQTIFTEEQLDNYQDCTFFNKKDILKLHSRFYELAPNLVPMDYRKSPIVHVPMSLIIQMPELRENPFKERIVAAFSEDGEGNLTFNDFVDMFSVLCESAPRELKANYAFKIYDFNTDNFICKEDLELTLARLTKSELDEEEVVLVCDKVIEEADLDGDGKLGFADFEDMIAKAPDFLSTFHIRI

[2] = target: T1, human wild type calcium and integrin …; test: dynamic light scattering; Zetasizer Nano-S, 37°C; samples immediately after SEC in 20 mM Tris-HCl pH 7.5, 150 mM KCl, 1 mM DTT with 3 mM EGTA or 2 mM EGTA + 3 mM Mg2+ or 3 mM Mg2+ + 2 mM Ca2+
[3] = target: T1, human wild type calcium and integrin …; test: SEC; analytical SEC, Superose 12 10/300GL; 20 mM Tris pH 7.5, 150 mM KCl, 1 mM DTT with 3 mM EGTA or 2 mM EGTA + 3 mM Mg2+ or 3 mM Mg2+ + 2 mM Ca2+; WT 100 μM, E64D 70 μM; MW from a calibration plot

Measured: stoichiometry N

B1: human wild type calcium and integrin binding protein 2 (CIB2), O75838-1 1-187 (natural protein)
chain: MGNKQTIFTEEQLDNYQDCTFFNKKDILKLHSRFYELAPNLVPMDYRKSPIVHVPMSLIIQMPELRENPFKERIVAAFSEDGEGNLTFNDFVDMFSVLCESAPRELKANYAFKIYDFNTDNFICKEDLELTLARLTKSELDEEEVVLVCDKVIEEADLDGDGKLGFADFEDMIAKAPDFLSTFHIRI
2: all assays above
